Source: patent publication US20170368189

Tests used:
[1] = biological target: T1, Permanent N-terminal CNP-38 PEG 5 kDa conjugate 15e (not fully specified)
T1 chain: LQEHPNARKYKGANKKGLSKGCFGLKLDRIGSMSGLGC

[2] = biological target: T2, Permanent Lys26 CNP-38 PEG4x10 kDa conjugate 12g (not fully specified)
T2 chain: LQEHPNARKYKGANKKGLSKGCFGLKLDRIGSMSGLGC

[3] = biological target: T3, Permanent N-terminal CNP-34 PEG 5 kDa conjugate 14e (not fully specified)
T3 chain: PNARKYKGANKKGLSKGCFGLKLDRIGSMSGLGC

Measured: half life norm. [h] (in vitro NEP digest)

B1: recombinant human Neutral Endopeptidase (NEP) (protein)
chain: YDDGICKSSDCIKSAARLIQNMDATTEPCTDFFKYACGGWLKRNVIPETSSRYGNFDILRDELEVVLKDVLQEPKTEDIVAVQKAKALYRSCINESAIDSRGGEPLLKLLPDIYGWPVATENWEQKYGASWTAEKAIAQLNSKYGKKVLINLFVGTDDKNSVNHVIHIDQPRLGLPSRDYYECTGIYKEACTAYVDFMISVARLIRQEERLPIDENQLALEMNKVMELEKEIANATAKPEDRNDPMLLYNKMTLAQIQNNFSLEINGKPFSWLNFTNEIMSTVNISITNEEDVVVYAPEYLTKLKPILTKYSARDLQNLMSWRFIMDLVSSLSRTYKESRNAFRKALYGTTSETATWRRCANYVNGNMENAVGRLYVEAAFAGESKHVVEDLIAQIREVFIQTLDDLTWMDAETKKRAEEKALAIKERIGYPDDIVSNDNKLNNEYLELNYKEDEYFENIIQNLKFSQSKQLKKLREKVDKDEWISGAAVVNAFYSSGRNQIVFPAGILQPPFFSAQQSNSLNYGGIGMVIGHEITHGFDDNGRNFNKDGDLVDWWTQQSASNFKEQSQCMVYQYGNFSWDLAGGQHLNGINTLGENIADNGGLGQAYRAYQNYIKKNGEEKLLPGLDLNHKQLFFLNFAQVWCGTYRPEYAVNSIKTDVHSPGNFRIIGTLQNSAEFSEAFHCRKNSYMNPEKKCRVW
Almost no proteolysis after 4 days.: all assays above
